From article PMC10572367, “The Generation of a Nanobody-Based ELISA for Human Microsomal Epoxide Hydrolase” (International Journal of Molecular Sciences, 2023)

How the values were obtained:
[1] = biological target: T1, recombinant human microsomal epoxide hydrolase (Homo sapiens, UniProt P07099, final four amino acid residues of mEH (LERQ) were mutated to the Factor Xa …); experiment: ELISA; phage ELISA of randomly picked single phage clones against recombinant human mEH; settings: one partner purified
T1 construct: human microsomal epoxide hydrolase (mEH), Uniprot P07099; Extracted from microsomes with beta-DDM; also called mEH; human mEH; source: Tni (Trichoplusia ni) insect cells, baculovirus, purified (Ni-NTA, size exclusion chromatography)
T1 sequence (P07099 other isoform, or with tags, fused parts or gaps with the stated changes): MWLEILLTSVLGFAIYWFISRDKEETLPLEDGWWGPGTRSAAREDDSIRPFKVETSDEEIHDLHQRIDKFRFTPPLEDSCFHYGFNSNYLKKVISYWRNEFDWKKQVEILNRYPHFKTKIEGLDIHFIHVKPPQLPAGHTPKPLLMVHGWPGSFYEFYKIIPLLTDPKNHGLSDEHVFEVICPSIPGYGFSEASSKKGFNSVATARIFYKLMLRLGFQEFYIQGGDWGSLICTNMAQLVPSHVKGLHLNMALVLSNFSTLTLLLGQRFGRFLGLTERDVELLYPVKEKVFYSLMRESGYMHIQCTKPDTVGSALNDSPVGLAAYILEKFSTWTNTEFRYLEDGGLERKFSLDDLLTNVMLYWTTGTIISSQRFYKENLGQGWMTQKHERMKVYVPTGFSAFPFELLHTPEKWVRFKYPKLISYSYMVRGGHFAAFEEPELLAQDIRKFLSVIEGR

[2] = biological target: T1, recombinant human microsomal epoxide …; experiment: ELISA; direct ELISA testing the titer of the candidate nanobodies; format not described; settings: both partners purified
[3] = biological target: T2, human mEH in human tissue whole extracts (Homo sapiens, endogenous, UniProt P07099); experiment: ELISA; sandwich ELISAs of formats A, B and C (mAb capture, native or biotinylated MQ30 detection) on human whole tissue extracts diluted 10^3, 10^4 and 10^5-fold; settings: one partner purified
T2 construct: human microsomal epoxide hydrolase, endogenous in human tissue extracts (adrenal, esophagus, liver, pancreas, ovary, heart, hippocampus); also called bioactive mEH in the crude extracts; source: endogenous, whole tissue extracts of human commercial tissue samples (BioChain Institute)
T2 sequence (P07099 whole entry): as the sequence (P07099 other isoform, or with tags, fused parts or gaps with the stated changes) above, with I452L, G454R, R455Q counted along it

human EH-3 (human) = biological target: T3, human EH-3 (human) (UniProt Q9H6B9); experiment: ELISA; cross-reactivity in the format A sandwich (mAb capture, MQ30 detection): epoxide hydrolases spiked at 1000 ng mL^-1 in PBS, read against the human mEH standard curve; a signal needs capture by the mAb as well as MQ30
T3 sequence: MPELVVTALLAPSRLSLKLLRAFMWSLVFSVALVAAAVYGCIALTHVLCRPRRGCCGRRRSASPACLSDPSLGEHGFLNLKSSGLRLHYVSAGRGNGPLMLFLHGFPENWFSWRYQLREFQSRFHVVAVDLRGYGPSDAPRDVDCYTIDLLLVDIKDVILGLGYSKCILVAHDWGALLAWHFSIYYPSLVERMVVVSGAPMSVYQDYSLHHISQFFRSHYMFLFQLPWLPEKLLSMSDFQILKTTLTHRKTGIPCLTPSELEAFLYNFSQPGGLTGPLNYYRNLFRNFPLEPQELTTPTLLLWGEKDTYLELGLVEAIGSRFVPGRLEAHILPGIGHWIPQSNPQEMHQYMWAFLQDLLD

human EH-4 (human) = biological target: T4, human EH-4 (human) (UniProt Q8IUS5); experiment: as above
T4 sequence: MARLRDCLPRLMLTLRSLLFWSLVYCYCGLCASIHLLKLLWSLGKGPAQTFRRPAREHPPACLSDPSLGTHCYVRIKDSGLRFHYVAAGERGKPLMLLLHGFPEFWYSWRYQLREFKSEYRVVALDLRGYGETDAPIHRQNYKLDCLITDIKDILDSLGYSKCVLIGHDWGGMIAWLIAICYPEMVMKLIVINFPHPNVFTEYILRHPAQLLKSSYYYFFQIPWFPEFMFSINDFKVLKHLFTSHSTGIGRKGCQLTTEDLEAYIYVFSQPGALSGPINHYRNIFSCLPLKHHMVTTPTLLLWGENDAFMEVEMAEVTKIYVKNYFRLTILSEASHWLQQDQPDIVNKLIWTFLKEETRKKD

human sEH (human) = biological target: T5, human sEH (human) (UniProt P34913); experiment: as above
T5 sequence: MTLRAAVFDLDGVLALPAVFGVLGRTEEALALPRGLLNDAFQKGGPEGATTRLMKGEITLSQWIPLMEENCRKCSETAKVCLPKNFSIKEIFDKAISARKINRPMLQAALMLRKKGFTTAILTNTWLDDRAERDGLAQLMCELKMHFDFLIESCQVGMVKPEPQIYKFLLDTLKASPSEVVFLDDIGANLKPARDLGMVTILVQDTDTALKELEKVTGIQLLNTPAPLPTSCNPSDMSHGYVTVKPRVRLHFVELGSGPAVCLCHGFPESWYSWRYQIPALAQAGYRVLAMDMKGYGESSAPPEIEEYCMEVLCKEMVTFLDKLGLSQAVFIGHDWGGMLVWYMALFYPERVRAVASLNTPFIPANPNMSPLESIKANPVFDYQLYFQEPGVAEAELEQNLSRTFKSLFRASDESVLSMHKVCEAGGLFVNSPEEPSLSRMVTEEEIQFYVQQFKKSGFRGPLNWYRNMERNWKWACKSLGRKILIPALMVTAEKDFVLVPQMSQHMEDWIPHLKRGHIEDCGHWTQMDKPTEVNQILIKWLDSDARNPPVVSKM

rat mEH (rat) = biological target: T6, rat mEH (rat) (UniProt P07687); experiment: as above
T6 sequence: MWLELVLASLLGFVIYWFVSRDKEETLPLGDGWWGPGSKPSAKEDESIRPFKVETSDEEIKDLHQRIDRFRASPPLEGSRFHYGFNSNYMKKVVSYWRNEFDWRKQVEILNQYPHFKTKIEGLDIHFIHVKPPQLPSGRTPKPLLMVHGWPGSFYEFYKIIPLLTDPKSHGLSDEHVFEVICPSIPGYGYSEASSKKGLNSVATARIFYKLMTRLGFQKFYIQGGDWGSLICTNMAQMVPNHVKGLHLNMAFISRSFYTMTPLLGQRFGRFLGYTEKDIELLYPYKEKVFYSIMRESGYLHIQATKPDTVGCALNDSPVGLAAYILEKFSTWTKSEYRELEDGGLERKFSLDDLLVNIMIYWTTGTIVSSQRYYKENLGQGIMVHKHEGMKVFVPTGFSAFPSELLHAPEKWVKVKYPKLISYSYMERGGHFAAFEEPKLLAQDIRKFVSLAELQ

[4] = biological target: T1, recombinant human microsomal epoxide …; experiment: far-Western, overlay or dot blot; Western blot: recombinant human mEH denatured, run on Mini-protean TGX gels, transferred to PVDF; nanobody as detection antibody (HRP-labelled anti-HA as tracer, or MQM8-HRP); settings: both partners purified

B1: nanobody MQ4 (VHH)
VHH: QVQLVESGGGLAQPGGSLRLSCDASGSPYIINDMGWYRQAPGKQRELVASITRRGITNVADSVKGRFTISRDNAKMTVYLQMNSLKSEDTALYNCHAQPAVTPRMDYWGQGTQVTVSS
notes: Selected from a phage library of an immunised llama; In the phage ELISA the clone stood on phage, not as the soluble purified VHH; also called VHH MQ4; source: E. coli TOP10F', purified (B-PER extraction, Ni-NTA); in the phage ELISA as a phage clone
**Q.** Does B1 bind [1]?
**A.** binds

B2: nanobody MQ17 (VHH)
VHH: QLQLVESGGGLVQPGGSLTLSCAASGSIFTIDALGWFRQAPGKEREFVAALPWRDGVPYYAASNKGRFSVSKDSAKNTVFKNTVFLQVNNLEPEDTAVYSCAARPWYATSTYSDSDSYGYWGQGTQVTVSS
notes: Selected from a phage library of an immunised llama; In the phage ELISA the clone stood on phage, not as the soluble purified VHH; also called VHH MQ17; source: E. coli TOP10F', purified (B-PER extraction, Ni-NTA); in the phage ELISA as a phage clone
**Q.** Does B2 bind [2]?
**A.** binds

B3: nanobody MQ30 (VHH)
VHH: QVQLVESGGGVVQPGGSLRLSCVVSGSRFSLNFMGWFRQAPGKEREFVAALIWRGDVAHYAASNKGRFTVSKESAKNTVYLQLNSLEPEDTAVYSCAAQPWYSRDTYSDSDSYKYWGQGTQVTVSS
notes: Selected from a phage library of an immunised llama; In the phage ELISA the clone stood on phage, not as the soluble purified VHH; also called VHH MQ30; native VHH MQ30; source: E. coli TOP10F', purified (B-PER extraction, Ni-NTA); in the phage ELISA as a phage clone
**Q.** Which results are given for B3?
**A.** binding result [3]: binds; cross-reactivity (human EH-3 (human)): < 0.01%; cross-reactivity (human EH-4 (human)): < 0.01%; cross-reactivity (human sEH (human)): < 0.01%; cross-reactivity (rat mEH (rat)): 0.11%; measured concentration at 1000 ng mL^-1 spiked (rat mEH (rat)): 1.05 ng/mL

B4: biotinylated VHH MQ30 (VHH)
VHH: B3 VHH
notes: as the VHH of m4 (MQ30); also called biotinylated MQ30; source: E. coli TOP10F', purified (Ni-NTA), then biotinylated
**Q.** Does B4 bind [3]?
**A.** binds

B5: nanobody MQM8 (VHH)
VHH: QLQLVESGGGFVPPGGSLRLSCAASGFIFRFVGMGRYRQAPGKQRELVASITGNDYRNYADSVKGRFTISRDNYKNTVDLQMNSLKPEDTAVYYCNRVPLDFGSWGQGTQVTVSS
notes: Selected from a phage library of an immunised llama; In the phage ELISA the clone stood on phage, not as the soluble purified VHH; also called VHH MQM8; source: E. coli TOP10F', purified (B-PER extraction, Ni-NTA); in the phage ELISA as a phage clone
**Q.** Does B5 bind [2]?
**A.** binds

B6: MQM8-HRP (VHH)
VHH: B5 VHH
notes: as the VHH of m5 (MQM8); Named only as 'MQM8-HRP as a signal tracer'; also called HRP-labelled VHH MQM8
**Q.** Does B6 bind [4]?
**A.** binds
